B1: Protein CBFA2T1 (Homo sapiens), Q06455 (parent)
chain: MISVKRNTWRALSLVIGDCRKKGNFEYCQDRTEKHSTMPDSPVDVKTQSRLTPPTMPPPPTTQGAPRTSSFTPTTLTNGTSHSPTALNGAPSPPNGFSNGPSSSSSSSLANQQLPPACGARQLSKLKRFLTTLQQFGNDISPEIGERVRTLVLGLVNSTLTIEEFHSKLQEATNFPLRPFVIPFLKANLPLLQRELLHCARLAKQNPAQYLAQHEQLLLDASTTSPVDSSELLLDVNENGKRRTPDRTKENGFDREPLHSEHPSKRPCTISPGQRYSPNNGLSYQPNGLPHPTPPPPQHYRLDDMAIAHHYRDSYRHPSHRDLRDRNRPMGLHGTRQEEMIDHRLTDREWAEEWKHLDHLLNCIMDMVEKTRRSLTVLRRCQEADREELNYWIRRYSDAEDLKKGGGSSSSHSRQQSPVNPDPVALDAHREFLHRPASGYVPEEIWKKAEEAVNEVKRQAMTELQKAVSEAERKAHDMITTERAKMERTVAEAKRQAAEDALAVINQQEDSSESCWNCGRKASETCSGCNTARYCGSFCQHKDWEKHHHICGQTLQAQQQGDTPAVSSSVTPNSGAGSPMDTPPAATPRSTTPGTPSTIETTPR

Variants of: B1
Details: with son_human SON

Variant	effect of a mutation on the interaction
C515S	disrupting interaction strength

Variants of: B1
Details: with son_mouse Son

Variant	effect of a mutation on the interaction
C515S	disrupting interaction strength
